# Earlier results, collected in publication PMC2900478.
# Target: GABARAP (Homo sapiens) (UniProt O95166)
# Sequence of UniProt O95166 (O95166 1-116): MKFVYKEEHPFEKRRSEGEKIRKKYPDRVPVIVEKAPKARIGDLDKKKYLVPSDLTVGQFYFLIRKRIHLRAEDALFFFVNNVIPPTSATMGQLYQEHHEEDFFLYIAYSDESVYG
substance,measurement,value
Nix (from UniProt O60238),Kd,100 µM
